For test [1], the target named is human FcγRIIa^H131 extracellular domain with AviTag and 6×his tag (human) (UniProt P12318). Briefly: SPR; Biacore T200, HBS-EP+ buffer, 20 °C; 500 nM his-tagged FcγR extracellular domains captured by anti-his antibody on a CM5 chip; twofold serially diluted antibody variants injected (120 s association, 130 s dissociation, 30 μL/min); 1:1 binding kinetics model or steady state affinity model.

Test [2] concerns the target human FcγRIIb extracellular domain with AviTag and 6×his tag (human) (UniProt P31994). Described as above.
Test [3] deals with human FcγRIIIa^V158 extracellular domain with AviTag and 6×his tag (human). Described as above.
Test [4] has as its target human FcγRIIIa^F158 extracellular domain with AviTag and 6×his tag (human) (UniProt P08637). Described as above.
Test [5] concerns the target human FcγRIIa^R131 extracellular domain with AviTag and 6×his tag (human). The test is described as above.
For test [6], the target named is human FcγRI extracellular domain, his-tagged (human) (UniProt P12314). The test is described as above.
The target in test [7] is human FcRn, his-tagged (human) (UniProt P55899). Briefly: SPR; as a1, his-tagged FcRn captured by anti-his antibody, antibody variants injected; pH 6. Background: In SPR one partner is held on a chip, and binding of the other changes the refractive index at the surface.
human FcRn, his-tagged (human), sequence (P55899 24-297): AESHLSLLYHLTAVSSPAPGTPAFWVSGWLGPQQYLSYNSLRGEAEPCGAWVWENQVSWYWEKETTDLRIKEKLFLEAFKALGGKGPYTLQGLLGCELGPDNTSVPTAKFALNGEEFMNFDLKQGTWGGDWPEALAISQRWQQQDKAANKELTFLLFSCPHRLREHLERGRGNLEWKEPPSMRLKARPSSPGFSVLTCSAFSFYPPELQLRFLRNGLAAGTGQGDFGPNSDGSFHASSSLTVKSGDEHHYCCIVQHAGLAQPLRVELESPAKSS

human FcγRIIa^H131 extracellular domain with AviTag and 6×his tag (human), sequence (P12318 34-217): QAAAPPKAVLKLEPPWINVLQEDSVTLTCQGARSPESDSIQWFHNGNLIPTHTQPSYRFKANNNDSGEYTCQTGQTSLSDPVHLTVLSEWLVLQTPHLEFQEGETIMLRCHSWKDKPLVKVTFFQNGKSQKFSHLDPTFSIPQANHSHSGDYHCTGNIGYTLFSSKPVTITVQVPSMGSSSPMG
human FcγRIIb extracellular domain with AviTag and 6×his tag (human), sequence (P31994 43-217): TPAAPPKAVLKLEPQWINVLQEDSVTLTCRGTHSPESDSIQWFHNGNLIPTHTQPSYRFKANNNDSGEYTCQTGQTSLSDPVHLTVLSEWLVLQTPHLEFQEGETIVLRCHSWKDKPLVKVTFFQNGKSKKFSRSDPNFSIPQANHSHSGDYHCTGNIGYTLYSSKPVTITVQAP
human FcγRIIIa^F158 extracellular domain with AviTag and 6×his tag (human), sequence (P08637 17-208): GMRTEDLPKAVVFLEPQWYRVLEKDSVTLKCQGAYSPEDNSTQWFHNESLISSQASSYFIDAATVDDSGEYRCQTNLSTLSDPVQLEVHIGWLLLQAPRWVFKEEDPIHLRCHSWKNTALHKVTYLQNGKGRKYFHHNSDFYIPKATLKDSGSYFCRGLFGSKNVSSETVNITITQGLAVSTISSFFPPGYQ
human FcγRI extracellular domain, his-tagged (human), sequence (P12314 16-292): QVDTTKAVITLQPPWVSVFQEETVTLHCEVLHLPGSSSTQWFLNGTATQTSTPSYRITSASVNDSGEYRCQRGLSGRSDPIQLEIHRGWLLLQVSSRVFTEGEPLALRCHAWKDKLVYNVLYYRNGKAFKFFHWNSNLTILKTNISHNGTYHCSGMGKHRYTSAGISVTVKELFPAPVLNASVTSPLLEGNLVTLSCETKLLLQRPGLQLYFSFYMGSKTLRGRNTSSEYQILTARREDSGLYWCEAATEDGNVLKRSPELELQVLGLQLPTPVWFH

For “defucosylated trastuzumab with Fc variant H268E/K326M/I332E (antibody)”, the Kd came to 1040 nM in test [1]; 1030 nM in test [2]; 1.71 nM in test [3]; 3.55 nM in test [4]; 420 nM in test [5].
As for “defucosylated trastuzumab with Fc variant H268E/K326S/I332E (antibody)”, the Kd in test [1] came out at 669 nM; in test [2] it was 1460 nM; in test [3], 1.36 nM; in test [4], 2.62 nM; in test [5], 369 nM.
Regarding “defucosylated trastuzumab with wild-type Fc (antibody)”, the Kd in test [1] came out at 2090 nM; in test [2], 1780 nM; in test [3], 12.3 nM; in test [4], 46.5 nM; in test [5], 1460 nM.
Take “fucosylated trastuzumab with wild-type Fc (antibody)”: the Kd in test [1] came out at 1000 nM; in test [2] it was 1240 nM; in test [3], 38.5 nM; in test [4], 174 nM; in test [5] it was 1500 nM.
Take “rituximab with Fc variant H268E/A330T/I332E (antibody)”: the Kd is 627 nM in test [1]; 5.64 nM in test [6]; 906 nM in test [2]; 61.1 nM in test [3]; 156 nM in test [4]; 575 nM in test [5]. In addition, the equilibrium dissociation constant (Kd) in test [7] was 21.5 nM.
Turning to “rituximab with Fc variant H268E/A330Y/I332D (antibody)”, the Kd in test [1] was found to be 526 nM; in test [6], 5.04 nM; in test [2], 1470 nM; in test [3], 60.6 nM; in test [4], 94 nM; in test [5] it was 680 nM. For the same substance, the Kd in test [7] was found to be 21.9 nM.
As for “rituximab with Fc variant H268E/K326I/I332E (antibody)”, the Kd worked out at 1950 nM in test [1]; 6.11 nM in test [6]; 1690 nM in test [2]; 143 nM in test [3]; 311 nM in test [4]; 1210 nM in test [5]. The Kd in test [7] is 25.7 nM.
With “rituximab with Fc variant H268E/K326M/I332E (antibody)”, the Kd in test [1] amounted to 882 nM; in test [6] it was 5.15 nM; in test [2], 1050 nM; in test [3], 69.1 nM; in test [5], 738 nM; in test [7], 26 nM.
With “rituximab with Fc variant H268E/K326S/I332E (antibody)”, the Kd in test [1] turned out to be 814 nM; in test [6], 5.18 nM; in test [2], 1130 nM; in test [3] it was 74.7 nM; in test [4] it was 151 nM; in test [5], 803 nM. In test [7], this substance yielded a dissociation constant Kd of 25 nM.
Turning to rituximab with wild-type Fc (antibody), the Kd was 1090 nM in test [1]; 8.67 nM in test [6]; 2410 nM in test [2]; 403 nM in test [3]; 944 nM in test [4]; 1250 nM in test [5]. In test [7], this substance displayed a Kd of 21 nM.

Usually Kd stands for the equilibrium constant for the complex coming apart.

(Values after publication PMC7778609.)
